Where two headings read alike, the source gives them in different places.
Key:
[1] = molecular target: cytosolic domain of Photorhabdus luminescens LscV (LscVC; residues 357–705) (Photorhabdus luminescens (Table 1: Photorhabdus laumondii TT01)); test: crystal structure
[2] = molecular target: cytosolic domain of Photorhabdus luminescens LscV (LscVC; residues 357–705) (Photorhabdus luminescens (Table 1: Photorhabdus laumondii TT01)); test: crystal structure; remark: listed apart in the source
[3] = molecular target: cytosolic domain of Aeromonas hydrophila AscV (AscVC; residues 375–721) (Aeromonas hydrophila AH3)

cytosolic domain of Photorhabdus luminescens LscV (LscVC; residues 357–705) (domain or fragment)
stoichiometry N [1]: 9 | stoichiometry N [2]: 8

cytosolic domain of Aeromonas hydrophila AscV (AscVC; residues 375–721) (domain or fragment)
stoichiometry N [3]: 10
